Assay results as given in patent US6710030B1, “Contortrostain (CN) and methods for its use in preventing metastasis and other conditions” (University of Southern California, priority 1993, dated 2004).
“Also recorded” adds a separate entry of the source.

How the values were obtained:
[1] = tested on: unactivated human platelets; assay: Scatchard analysis of CN binding to unactivated human platelets
[2] = tested on: chick chorioallantoic membrane; assay: bFGF and VEGF induced angiogenesis in chick chorioallantoic membrane model; details: in vivo
From the text: Significance: The function of αvβ5 has been indicated by many studies. […] Although αvβ5 participates in the initiation of cell adhesion to vitronectin, unlike αvβ3 which mediates cell migration constitutively, αvβ5 mediates migration only when activated by growth factors, such as insulin-like growth factor-1 (IGF-1), epidermal growth factor (EGF), and transforming growth factor-α (TGF-α).

[3] = tested on: MDA-MB-435 cells; assay: Phosphotyrosine immunoblot, MDA-MB-435 cells; assay type: cell-based, human
Description: (§1) Cell culture, preparation and stimulation—T24 cells were maintained in RPMI 1640 medium containing 5% fetal bovine serum, and MDA-MB-435 and 293 cells were maintained in Dulbecco's modified Eagle's medium with 10% serum at 37° C. in 5% CO2. Cells were washed with phosphate-buffered saline (PBS) and starved in the appropriate serum-free medium for 6 h at 37° C. Cells were detached by brief treatment with 0.05% trypsin/0.02% EDTA in PBS and collected by centrifugation, resuspended in soybean trypsin inhibitor (1 mg/ml in serum-free medium), and washed in 2% bovine serum albumin/serum-free medium. Cells were maintained in suspension for 1 h in 2% bovine serum albumin/serum-free medium at 37° C. with end-over-end agitation. Quiescent cells (3×10^6/ml) were treated with disintegrins or other reagents while in suspension, or were allowed to adhere to Matrigel (Becton Dickinson, Bedford, Mass.) diluted 1:100 with serum-free medium during treatment.
Lysate preparation and immunoprecipitation—Suspended and adherent cells were washed twice with cold PBS and lysed in cold lysis buffer (50 mM Tris, pH 8.0, 150 mM NaCl, 1% Nonidet P-40, 0.5% deoxycholate, 0.1% SDS, protease inhibitor cocktail, 1 mM sodium pyrophosphate, 1 mM sodium orthovanadate, 50 mM sodium fluoride). After 10-15 min incubation on ice, insoluble material was removed by centrifugation at 14,000 RPM in a microcentrifuge for 15 min. Supernatants were collected and total protein concentrations standardized by the BCA protein assay (Pierce, Rockford, Ill.). Immunoprecipitation was carried out by incubating whole cell lysates (200 μg total protein) with 1.25 μg anti-FAK or anti-CAS mAb 4-6 h at 4° C. followed by 20 μl protein G-agarose overnight at 4° C. Immunoprecipitates were washed 4 times in lysis buffer without inhibitors and dissociated by adding SDS-PAGE sample buffer and boiling 5 min. Whole cell lysates (30 μg total protein) or immunoprecipitates were resolved by 7.5% SDS-polyacrylamide gel electrophoresis and transferred to nitrocellulose membranes.
Immunoblotting—Membranes were blocked with 5% nonfat milk/Tris-buffered saline/0.1% Tween 20 (blocking buffer) 1 h at room temperature or overnight at 4° C. Primary antibody incubations were performed in blocking buffer for 1 h at room temperature. After washing in Tris-buffered saline/0.1% Tween 20, membranes were incubated with horseradish peroxidase-conjugated secondary antibody in blocking buffer 1 h at room temperature. Membranes were washed extensively. Inimunoblots were developed using Super Signar West Pico Chemiluminescent Substrate from Pierce. Densitometry was performed using UN-SCAN-IT™, software (Silk Scientific, Orem, Utah))

[4] = Solubility in water; assay type: physicochemical
From the text: CN may be administered by a variety of heretofore known means suitable for delivery thereof into the blood stream in substantial amounts. Intravenous administration of CN in a suitable liquid vehicle or excipient is presently contemplated as the preferred route of administration. […] Alternatively, CN may be administered orally (in the form of tablets or capsules formulated with a suitable binder or excipient material, or in the form of aqueous or oily suspensions, solutions, emulsions, syrups or elixirs) or as a parenteral suspension. As is well known in the art, adjuvants such as local anesthetics, preservatives, buffering agents, lubricants, wetting agents, colorants, flavorings, fillers and diluents may suitably be included in any of these formulations.

[5] = tested on: platelets; assay: Platelet release reactions (granule contents); assay type: cell-based
From the text: Platelets comprise a plurality of different granules, including alpha granules and dense granules, whose contents are released when the platelets aggregate. […] Thus, normal platelet physiological processes are necessarily further perturbed with administration of applaggin.

[6] = tested on: T24 cells; assay: Adhesion of T24 cells to immobilized vitronectin; assay type: cell-based, human
Description: Individual wells of 96-well plates were coated at 4° C. overnight with 100 μl of vitronectin (1 μg/well). Excess proteins were washed off with three washes of phosphate buffered saline (PBS), followed by blocking with 1% bovine serum albumin (BSA) in PBS. Aliquots (100 μl) of cells (5×10^5 cells/ml) were incubated at room temperature for 20 minutes with antibodies or contortrostatin before being applied to the coated wells. Treated cells were allowed to adhere to the wells for 30 minutes at 37° C. Unbound cells were washed off with serum-free medium. Cell adhesion was quantified either by CellTiter 96™ Aqueous Proliferation Assay kit (Promega, Madison, Wis.). Each inhibitor concentration was tested in triplicate, and assays were performed at least three times yielding identical results.

[7] = tested on: αvβ3 293 cells; assay: Phosphotyrosine immunoblot, 293 cells expressing αvβ3; assay type: cell-based, human; details: 10 min
Description: as §1, with “treatment. […]” for “treatment.”
Contortrostatin- induced signaling events are mediated by the αvβ3 integrin—The integrinbinding specificities of echistatin and flavoridin have been determined previously (Niewiarowski et al., supra; and Pfaff, M., McLane, M. A., Beviglia, L., Niewiarowski, S., and Timpl, R. (1994) Cell Adhesion and Communication 2, 491-501). […]

B1: contortrostatin (protein)
chain: DAPANPCCDAATCKLTTGSQCADGLCCDQCKFMKEGTVCRRARGDDLDDYCNGISAGCPRNPFHA
[1]
  number of binding sites (Bm): 100,000
[2]
  angiogenesis induced by bFGF and VEGF: inhibits angiogenesis
[3]; suspended cells, 10 min
  concentration giving maximal tyrosine phosphorylation: 10 nM
[3]; tumor cells, soluble contortrostatin
  lowest concentration increasing tyrosine phosphorylation of FAK and CAS: 1 nM
[4]
  solubility: soluble in water
[5]
  platelet release reactions: does not inhibit platelet release reactions
[6]; FIG. 19 A, B
  adhesion of T24 cells to vitronectin, in words: inhibits adhesion of T24 completely
[6]; at a concentration less than 10 μg/ml
  inhibition of adhesion of T24 cells to vitronectin: 100%
[7]
  tyrosine phosphorylation: robust induction of tyrosine phosphorylation; also recorded: increased tyrosine phosphorylation
